Source: US20150307603A1 (MODIQUEST B V, published 2015)
Non-standard residues stand in square brackets, D forms with d. No end group written: not given here. Cit = NC(=O)NCCC[C@H](N)C(=O)O

Tests used:
[1] = target: T1, peptide no. 1 (human histone 2A) (human, also: biotin-labelled); assay: ELISA, Ab 0.000128 ug/well
T1 construct: also called peptide 1; AAASGXGKQGGK
T1 peptide: AAASG[Cit]GKQGGK
Protocol: (§1) Biotin and citrulline-containing peptides derived from histone 2A were immobilized on NEUTRAVIDIN®-coated 96-well ELISA plates (0.3 μg/well). CFC-1 and CFC-0 were coated at the same concentration and served as positive and negative controls, respectively, for specific anti-citrulline reactivity and as coating controls. Non-coated wells were used to test for aspecific binding of the antibodies. […] Detection of bound anti-citrulline antibodies was performed by incubating the wells with rabbit anti-human HRP (1:2000) for 1 hour at RT followed by incubation with TMB substrate. The resulting OD (y-axis) is a measure for antibody binding.

[2] = target: T2, CFC-1; assay: ELISA, Ab 0.000128 ug/well
T2 construct: Positive control for anti-citrulline reactivity; also called cfc1 XG; Cfc1-peptide
Protocol: as §1

[3] = target: T3, peptide no. 6 (human histone 2A) (human, also: biotin-labelled); assay: ELISA, Ab 0.000128 ug/well
T3 construct: also called peptide 6
T3 peptide: VHRLL[Cit]KGNYSE
Protocol: as §1

[4] = target: T4, peptide no. 5 (human histone 2A) (human, also: biotin-labelled); assay: ELISA, Ab 0.000128 ug/well
T4 construct: also called peptide 5
T4 peptide: VGRVH[Cit]LLRKGN
Protocol: as §1

[5] = target: T5, peptide no. 11 (human histone 2A) (human, also: biotin-labelled); assay: ELISA, Ab 0.000128 ug/well
T5 construct: also called peptide 11
T5 peptide: LQLAI[Cit]NDEELN
Protocol: as §1

[6] = target: T6, peptide no. 10 (human histone 2A) (human, also: biotin-labelled); assay: ELISA, Ab 0.000128 ug/well
T6 construct: also called peptide 10
T6 peptide: TRIIP[Cit]HLQLAI
Protocol: as §1

[7] = target: T7, peptide no. 3 (human histone 2A) (human, also: biotin-labelled); assay: ELISA, Ab 0.000128 ug/well
T7 construct: also called peptide 3
T7 peptide: KSRSS[Cit]AGLQFP
Protocol: as §1

[8] = target: T8, peptide no. 2 (human histone 2A) (human, also: biotin-labelled); assay: ELISA, Ab 0.000128 ug/well
T8 construct: also called peptide 2
T8 peptide: AKAKS[Cit]SSRAGL
Protocol: as §1

[9] = target: T9, peptide no. 8 (human histone 2A) (human, also: biotin-labelled); assay: ELISA, Ab 0.000128 ug/well
T9 construct: also called peptide 8
T9 peptide: AGNAA[Cit]DNKKTR
Protocol: as §1

[10] = target: T10, peptide no. 9 (human histone 2A) (human, also: biotin-labelled); assay: ELISA, Ab 0.000128 ug/well
T10 construct: also called peptide 9
T10 peptide: DNKKT[Cit]IIPRHL
Protocol: as §1

[11] = target: T11, msFibα XH (mouse, X at position 15 = citrulline; biotin-labelled); assay: ELISA, Ab 0.4 ug/well
T11 peptide: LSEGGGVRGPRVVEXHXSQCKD
Protocol: as §1, with “fibrinogen and vimentin” for “histone 2A”
(§2) Biotin-labeled and citrulline-containing fibrinogen and vimentin peptides (Table 5) were also tested for reactivity with the therapeutic antibodies. Peptides were coated on 96-well NEUTRAVIDIN®-ELISA plates.

[12] = target: T12, msVim XS/XL (mouse, also: biotin-labelled); assay: ELISA, Ab 0.4 ug/well
T12 construct: also called mouse vimentin peptide
T12 peptide: YVT[Cit]SSAV[Cit]L[Cit]SSVP
Protocol: as §1, with “fibrinogen and vimentin” for “histone 2A”
as §2

[13] = target: T13, msFibα XG (mouse, X at position 8 = citrulline; biotin-labelled); assay: ELISA, Ab 0.4 ug/well
T13 peptide: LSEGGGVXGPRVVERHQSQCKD
Protocol: as §1, with “fibrinogen and vimentin” for “histone 2A”
as §2

[14] = target: T14, huFibα XG (human, X at position 8 = citrulline; biotin-labelled); assay: ELISA, Ab 0.000128 ug/well
T14 peptide: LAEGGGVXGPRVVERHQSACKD
Protocol: as §1, with “fibrinogen and vimentin” for “histone 2A”
as §2

[15] = target: T11, msFibα XH; assay: ELISA, Ab 0.000128 ug/well
Protocol: as §1, with “fibrinogen and vimentin” for “histone 2A”
as §2

[16] = target: T15, msFibβ XG (mouse, also: biotin-labelled); assay: ELISA, Ab 0.000128 ug/well
T15 construct: also called mouse fibrinogen β peptide
T15 peptide: EPTDSLDA[Cit]GHRPVDRR
Protocol: as §1, with “fibrinogen and vimentin” for “histone 2A”
as §2

[17] = target: T2, CFC-1; assay: ELISA, Ab 0.000128 ug/well; remark: listed apart in the source
Protocol: as §1, with “fibrinogen and vimentin” for “histone 2A”
as §2

[18] = target: T16, huFibα XH (human, X at position 15 = citrulline; biotin-labelled); assay: ELISA, Ab 0.000128 ug/well
T16 peptide: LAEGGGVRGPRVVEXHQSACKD
Protocol: as §1, with “fibrinogen and vimentin” for “histone 2A”
as §2

[19] = target: T12, msVim XS/XL; assay: ELISA, Ab 0.000128 ug/well
Protocol: as §1, with “fibrinogen and vimentin” for “histone 2A”
as §2

[20] = target: T13, msFibα XG; assay: ELISA, Ab 0.000128 ug/well
Protocol: as §1, with “fibrinogen and vimentin” for “histone 2A”
as §2

[21] = target: T2, CFC-1; assay: ELISA, Ab 10 ug/well
Text: (§3) The resulting OD (y-axis) is a measure for antibody binding. H1-recombinant histone 1; H1/p2-huPAD2 recombinant histone 1; H1/p4-huPAD4 recombinant histone 1, and so forth (x-axis).

[22] = target: human recombinant histone 4 (human, UniProt P62805 2-103); assay: ELISA, Ab 10 ug/well
Text: as §3

[23] = target: T17, huPAD4-deiminated human recombinant histone 3 (human); assay: ELISA, Ab 10 ug/well
T17 construct: also called H3/p4
Text: as §3

[24] = target: T18, huPAD4-deiminated human recombinant histone 2B (human); assay: ELISA, Ab 10 ug/well
T18 construct: also called H2B/p4
Text: as §3

[25] = target: T19, human recombinant histone 2A (human); assay: ELISA, Ab 10 ug/well
T19 construct: Non-deiminated; also called H2A
Text: as §3

[26] = target: T20, huPAD2-deiminated human recombinant histone 2A (human); assay: ELISA, Ab 10 ug/well
T20 construct: also called H2A/p2; histone 2A/p2
Text: as §3

[27] = target: T21, huPAD2-deiminated human recombinant histone 2B (human); assay: ELISA, Ab 10 ug/well
T21 construct: also called H2B/p2
Text: as §3

B1: RhmAb2.102 (antibody, human IgG1, lambda)
heavy: not shown
light: QSVLTQPPSMSAAPGQKVTISCSGSSSNIGNNYVSWYQQVPGTAPKLLIYDDNKRPSGIPGRFSGSKSATSATLGITGLQAGDEADYYCGSWDDNLSVVLFGGGTKLTVLGQPKAAPSVTLFPPSSEELQANKATLVCLISDFYPGAVTVAWKADSSPVKAGVETTTPSKQSNNKYAASSYLSLTPEQWKSHRSYSCQVTHEGSTVEKTVAPTECS
notes: Human IgG1 lambda; also called Rhm2.102
B1 gave an OD [1] of 0.128 OD450, an OD [2] of 0.749 OD450 and an OD [3] of 0.054 OD450. For the same binder, the OD [4] was 0.059 OD450, the OD [5] was 0.059 OD450 and the OD [6] was 0.057 OD450. It also gave an OD [7] of 0.063 OD450, an OD [8] of 0.075 OD450 and an OD [9] of 0.055 OD450. For the same binder, the OD [10] was 0.055 OD450, the OD [11] was 0.076 OD450 and the OD [12] was 1.45 OD450. The OD [13] was 0.773 OD450, the OD [14] was 0.115 OD450 and the OD [15] was 0.089 OD450. The OD [16] was 0.118 OD450, the OD [17] was 0.288 OD450 and the OD [18] was 0.12 OD450. For the same binder, the OD [19] was 0.133 OD450, the OD [20] was 0.119 OD450 and the OD [21] was 3.48 OD450. It also gave an OD [22] of 0.825 OD450, an OD [23] of 1.31 OD450 and an OD [24] of 0.229 OD450. It also gave an OD [25] of 0.428 OD450, an OD [26] of 3.41 OD450 and an OD [27] of 0.31 OD450.
